From article PMC6267192

Biological target: TLR2 (human (endogenous in BEAS-2B)) (UniProt O60603)
UniProt O60603, sequence (O60603 21-784): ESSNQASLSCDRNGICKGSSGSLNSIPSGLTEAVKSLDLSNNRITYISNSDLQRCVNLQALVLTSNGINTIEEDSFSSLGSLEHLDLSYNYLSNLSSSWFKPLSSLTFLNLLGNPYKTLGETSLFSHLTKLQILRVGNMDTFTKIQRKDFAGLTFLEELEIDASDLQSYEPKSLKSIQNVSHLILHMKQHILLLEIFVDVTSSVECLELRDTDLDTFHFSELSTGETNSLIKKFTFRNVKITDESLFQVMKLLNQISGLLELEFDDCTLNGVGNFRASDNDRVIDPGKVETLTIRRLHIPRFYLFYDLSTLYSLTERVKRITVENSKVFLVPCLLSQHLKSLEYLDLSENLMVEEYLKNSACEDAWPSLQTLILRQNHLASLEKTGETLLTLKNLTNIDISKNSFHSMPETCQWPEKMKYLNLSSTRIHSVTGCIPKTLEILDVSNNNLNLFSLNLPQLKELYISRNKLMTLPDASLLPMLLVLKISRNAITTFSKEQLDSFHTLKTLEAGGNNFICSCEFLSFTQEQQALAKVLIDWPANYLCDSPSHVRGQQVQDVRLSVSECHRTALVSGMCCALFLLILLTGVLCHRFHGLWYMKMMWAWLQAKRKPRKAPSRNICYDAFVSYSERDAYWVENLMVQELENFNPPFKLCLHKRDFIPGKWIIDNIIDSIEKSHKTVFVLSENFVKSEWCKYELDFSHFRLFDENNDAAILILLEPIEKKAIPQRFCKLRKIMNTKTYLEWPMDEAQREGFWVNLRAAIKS

IL-8 release from BEAS-2B cells, allergen at 25 µg/mL, 24 hours [pg/mL]	Substance
157	Der p 2.0110 S47W (natural protein)
310	recombinant Der p 2 variant 2.0110 (from UniProt P49278 18-146) (natural protein)
